Measured values: paper PMC7192624, “A Snu114–GTP–Prp8 module forms a relay station for efficient splicing in yeast” (Nucleic Acids Research, 2020)
Residue numbers refer to the chain shown, from its start.

Tests used:
Experiment in all cases: SEC; two proteins co-produced in insect cells, both Strep-tagged; StrepTactin capture, then SEC on Superdex S200 in 10 mM TRIS-HCl pH 8.0, 300 mM NaCl, 2 mM DTT; co-purification of wt and variant complexes
Settings in all cases: both partners purified
Snu114^72-1008 K146A = biological target: T1, Snu114^72-1008 K146A (yeast, UniProt P36048 72-1008, K146A)
T1 construct: Insoluble when produced alone; also called Snu114^K146A; source: insect cells, co-produced with Prp8^SBR; complex purified; not shown: Strep tag (from the vector pIDS-C-Strep), C-terminal, kept
T1 sequence (looked up): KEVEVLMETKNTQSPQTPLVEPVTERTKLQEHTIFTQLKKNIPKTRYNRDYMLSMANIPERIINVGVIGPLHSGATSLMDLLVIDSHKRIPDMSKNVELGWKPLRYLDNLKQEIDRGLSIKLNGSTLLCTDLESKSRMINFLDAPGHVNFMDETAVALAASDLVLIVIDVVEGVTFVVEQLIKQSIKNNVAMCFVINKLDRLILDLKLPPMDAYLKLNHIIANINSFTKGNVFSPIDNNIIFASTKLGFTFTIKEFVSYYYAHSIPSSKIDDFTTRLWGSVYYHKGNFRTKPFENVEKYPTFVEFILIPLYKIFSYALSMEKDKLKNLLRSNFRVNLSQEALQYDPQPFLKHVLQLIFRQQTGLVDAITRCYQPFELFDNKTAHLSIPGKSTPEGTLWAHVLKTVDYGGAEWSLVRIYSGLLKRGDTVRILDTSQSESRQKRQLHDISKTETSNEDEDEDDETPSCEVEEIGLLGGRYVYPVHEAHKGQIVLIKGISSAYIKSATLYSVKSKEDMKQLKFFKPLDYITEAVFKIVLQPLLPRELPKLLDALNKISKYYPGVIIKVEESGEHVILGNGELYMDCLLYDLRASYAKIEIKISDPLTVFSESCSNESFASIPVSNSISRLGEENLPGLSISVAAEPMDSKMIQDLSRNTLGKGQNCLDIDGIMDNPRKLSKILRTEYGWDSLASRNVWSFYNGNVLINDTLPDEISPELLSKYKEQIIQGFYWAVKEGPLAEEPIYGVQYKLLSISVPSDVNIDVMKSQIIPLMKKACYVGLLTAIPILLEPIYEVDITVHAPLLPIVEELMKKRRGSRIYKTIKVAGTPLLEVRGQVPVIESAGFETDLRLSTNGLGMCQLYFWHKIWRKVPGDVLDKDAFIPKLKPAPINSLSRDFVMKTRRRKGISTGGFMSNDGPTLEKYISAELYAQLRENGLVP

Snu114^72-1008 S190A = biological target: T2, Snu114^72-1008 S190A (yeast, UniProt P36048 72-1008, S190A)
T2 construct: Insoluble when produced alone; also called Snu114^S190A; source: insect cells, co-produced with Prp8^SBR; complex purified; not shown: Strep tag (from the vector pIDS-C-Strep), C-terminal, kept
T2 sequence (looked up): T1 sequence (looked up) with A75K, S119A

[1] = biological target: T3, Snu114^72-1008 (yeast Snu114 lacking the acidic N-terminal region) (yeast, UniProt P36048 72-1008)
T3 construct: synthetic gene; Co-purifies with endogenous GTP; source: insect cells (MultiBac baculovirus); co-produced with Prp8 constructs or alone; purified (StrepTactin, SEC); not shown: Strep tag (from the vector pIDS-C-Strep), C-terminal, kept
T3 sequence (looked up): T1 sequence (looked up) with A75K

binding result (Snu114^72-1008 K146A): binds | binding result (Snu114^72-1008 S190A): binds | binding result [1]: binds
B1: Prp8^SBR (Prp8 Snu114-binding region, Prp8 residues 315-555), recombinant (domain or fragment, yeast, UniProt P33334 315-555, looked up)
chain: STPLRDEVTDKNYYYLFDKKSFFNGKALNNAIPGGPKFEPLYPREEEEDYNEFNSIDRVIFRVPIRSEYKVAFPHLYNSRPRSVRIPWYNNPVSCIIQNDEEYDTPALFFDPSLNPIPHFIDNNSSLNVSNTKENGDFTLPEDFAPLLAEEEELILPNTKDAMSLYHSPFPFNRTKGKMVRAQDVALAKKWFLQHPDEEYPVKVKVSYQKLLKNYVLNELHPTLPTNHNKTKLLKSLKNTK
notes: Could not be produced alone; In the crystal residues 367-533 were modelled (416-419 and 435-449 without density); also called wt Prp8^SBR; Prp8^SBP; source: complex purified (StrepTactin, SEC); not shown: Strep tag (from the vector pFL-N-Strep), N-terminal, kept
